Measurements published in the supplement of paper PMC9112550, “Optimization of the antimicrobial peptide Bac7 by deep mutational scanning” (BMC Biology, 2022).

Tested on: Escherichia coli TOP10
Test: shrunken log2 fold change of peptide-encoding DNA abundance (4.5 h post-induction vs induction); higher = less antimicrobial activity (less host growth inhibition)
Conditions: time post-induction: 4.5 h; library: site-saturation at positions 5, 18, 19, 20
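Note: peptides expressed intracellularly from a pBAD plasmid library in pooled LB shake-flask culture, induced with 0.3% L-arabinose, DNA abundance read by NGS, three biological replicates, DESeq2 with apeglm shrinkage.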

RRIRSRPPRLPRPRPRPVRCPRP
shrunken log2 fold change: 0.221

RRIRSRPPRLPRPRPRPVRSPRP
shrunken log2 fold change: 0.255

RRIRSRPPRLPRPRPRPVRVPRP
shrunken log2 fold change: 0.743

RRIRSRPPRLPRPRPRPVSRPRP
shrunken log2 fold change: -0.0166

RRIRSRPPRLPRPRPRPVTCPRP
shrunken log2 fold change: -0.299

RRIRSRPPRLPRPRPRPVVGPRP
shrunken log2 fold change: 0.267

RRIRSRPPRLPRPRPRPVVSPRP
shrunken log2 fold change: 0.151

RRIRSRPPRLPRPRPRPVVVPRP
shrunken log2 fold change: 0.1

RRIRSRPPRLPRPRPRPVWDPRP
shrunken log2 fold change: -0.143

RRIRSRPPRLPRPRPRPVYAPRP
shrunken log2 fold change: 0.0491

RRIRSRPPRLPRPRPRPVYHPRP
shrunken log2 fold change: 0.0286

RRIRSRPPRLPRPRPRPVYMPRP
shrunken log2 fold change: -0.461

RRIRSRPPRLPRPRPRPVYWPRP
shrunken log2 fold change: -0.175

RRIRSRPPRLPRPRPRPWCDPRP
shrunken log2 fold change: -0.238

RRIRSRPPRLPRPRPRPWCGPRP
shrunken log2 fold change: 0.0715

RRIRSRPPRLPRPRPRPWCTPRP
shrunken log2 fold change: -0.255

RRIRSRPPRLPRPRPRPWFWPRP
shrunken log2 fold change: 0.326

RRIRSRPPRLPRPRPRPWGVPRP
shrunken log2 fold change: -0.412

RRIRSRPPRLPRPRPRPWHEPRP
shrunken log2 fold change: -0.103

RRIRSRPPRLPRPRPRPWHFPRP
shrunken log2 fold change: -0.0226

RRIRSRPPRLPRPRPRPWLLPRP
shrunken log2 fold change: -0.337

RRIRSRPPRLPRPRPRPWMHPRP
shrunken log2 fold change: -0.0312

RRIRSRPPRLPRPRPRPWMPPRP
shrunken log2 fold change: -0.433

RRIRSRPPRLPRPRPRPWNIPRP
shrunken log2 fold change: -0.0599

RRIRSRPPRLPRPRPRPWPFPRP
shrunken log2 fold change: 0.0554

RRIRSRPPRLPRPRPRPWPHPRP
shrunken log2 fold change: -0.0676

RRIRSRPPRLPRPRPRPWQGPRP
shrunken log2 fold change: 0.0115

RRIRSRPPRLPRPRPRPWRKPRP
shrunken log2 fold change: 0.0156

RRIRSRPPRLPRPRPRPWSCPRP
shrunken log2 fold change: 0.194

RRIRSRPPRLPRPRPRPWSDPRP
shrunken log2 fold change: -0.164

RRIRSRPPRLPRPRPRPWSEPRP
shrunken log2 fold change: -0.196

RRIRSRPPRLPRPRPRPWSHPRP
shrunken log2 fold change: -0.174

RRIRSRPPRLPRPRPRPWSPPRP
shrunken log2 fold change: -0.1

RRIRSRPPRLPRPRPRPWVCPRP
shrunken log2 fold change: 0.101

RRIRSRPPRLPRPRPRPWWTPRP
shrunken log2 fold change: -0.127

RRIRSRPPRLPRPRPRPYAMPRP
shrunken log2 fold change: -0.909

RRIRSRPPRLPRPRPRPYATPRP
shrunken log2 fold change: -0.192

RRIRSRPPRLPRPRPRPYDAPRP
shrunken log2 fold change: -0.557

RRIRSRPPRLPRPRPRPYDDPRP
shrunken log2 fold change: 0.0208

RRIRSRPPRLPRPRPRPYETPRP
shrunken log2 fold change: -0.181

RRIRSRPPRLPRPRPRPYFSPRP
shrunken log2 fold change: -0.611

RRIRSRPPRLPRPRPRPYHAPRP
shrunken log2 fold change: -8.39e-05

RRIRSRPPRLPRPRPRPYHHPRP
shrunken log2 fold change: -0.511

RRIRSRPPRLPRPRPRPYIIPRP
shrunken log2 fold change: -0.502

RRIRSRPPRLPRPRPRPYKCPRP
shrunken log2 fold change: -0.137

RRIRSRPPRLPRPRPRPYMFPRP
shrunken log2 fold change: -0.648

RRIRSRPPRLPRPRPRPYMGPRP
shrunken log2 fold change: -0.776

RRIRSRPPRLPRPRPRPYNVPRP
shrunken log2 fold change: 0.00567

RRIRSRPPRLPRPRPRPYQHPRP
shrunken log2 fold change: -0.934

RRIRSRPPRLPRPRPRPYRDPRP
shrunken log2 fold change: -0.128

RRIRSRPPRLPRPRPRPYTFPRP
shrunken log2 fold change: -1.01

RRIRSRPPRLPRPRPRPYVFPRP
shrunken log2 fold change: -0.545

RRIRSRPPRLPRPRPRPYVQPRP
shrunken log2 fold change: -0.024

RRIRSRPPRLPRPRPRPYWEPRP
shrunken log2 fold change: -0.0147

RRIRSRPPRLPRPRPRPYWKPRP
shrunken log2 fold change: -0.144

RRIRSRPPRLPRPRPRPYYEPRP
shrunken log2 fold change: -0.628

RRIRSRPPRLPRPRPRPYYPPRP
shrunken log2 fold change: -2.8

RRIRTRPPRLPRPRPRPACDPRP
shrunken log2 fold change: 0.139

RRIRTRPPRLPRPRPRPACIPRP
shrunken log2 fold change: 0.599

RRIRTRPPRLPRPRPRPADAPRP
shrunken log2 fold change: -0.0445

RRIRTRPPRLPRPRPRPADDPRP
shrunken log2 fold change: 0.165

RRIRTRPPRLPRPRPRPADWPRP
shrunken log2 fold change: 0.446

RRIRTRPPRLPRPRPRPAELPRP
shrunken log2 fold change: 0.112

RRIRTRPPRLPRPRPRPAFAPRP
shrunken log2 fold change: 0.282

RRIRTRPPRLPRPRPRPAFFPRP
shrunken log2 fold change: 0.0542

RRIRTRPPRLPRPRPRPAFLPRP
shrunken log2 fold change: 0.228

RRIRTRPPRLPRPRPRPAGIPRP
shrunken log2 fold change: -0.0928

RRIRTRPPRLPRPRPRPAGQPRP
shrunken log2 fold change: -0.109

RRIRTRPPRLPRPRPRPAGVPRP
shrunken log2 fold change: 0.107

RRIRTRPPRLPRPRPRPAICPRP
shrunken log2 fold change: -0.552

RRIRTRPPRLPRPRPRPAIMPRP
shrunken log2 fold change: -0.0824

RRIRTRPPRLPRPRPRPAKAPRP
shrunken log2 fold change: -0.0213

RRIRTRPPRLPRPRPRPAKEPRP
shrunken log2 fold change: -0.0337

RRIRTRPPRLPRPRPRPAKQPRP
shrunken log2 fold change: -0.0125

RRIRTRPPRLPRPRPRPAKTPRP
shrunken log2 fold change: 0.117

RRIRTRPPRLPRPRPRPALWPRP
shrunken log2 fold change: 0.213

RRIRTRPPRLPRPRPRPAMHPRP
shrunken log2 fold change: 0.289

RRIRTRPPRLPRPRPRPAMIPRP
shrunken log2 fold change: -0.0108

RRIRTRPPRLPRPRPRPAPGPRP
shrunken log2 fold change: 0.544

RRIRTRPPRLPRPRPRPAPLPRP
shrunken log2 fold change: 0.368

RRIRTRPPRLPRPRPRPARHPRP
shrunken log2 fold change: 0.189

RRIRTRPPRLPRPRPRPARSPRP
shrunken log2 fold change: 0.0134

RRIRTRPPRLPRPRPRPASAPRP
shrunken log2 fold change: 0.916

RRIRTRPPRLPRPRPRPATIPRP
shrunken log2 fold change: -0.0446

RRIRTRPPRLPRPRPRPAVPPRP
shrunken log2 fold change: 0.0514

RRIRTRPPRLPRPRPRPAYFPRP
shrunken log2 fold change: 0.0144

RRIRTRPPRLPRPRPRPCAMPRP
shrunken log2 fold change: -0.111

RRIRTRPPRLPRPRPRPCDFPRP
shrunken log2 fold change: 0.042

RRIRTRPPRLPRPRPRPCEYPRP
shrunken log2 fold change: -0.0254

RRIRTRPPRLPRPRPRPCFDPRP
shrunken log2 fold change: -0.0899

RRIRTRPPRLPRPRPRPCFMPRP
shrunken log2 fold change: -0.153

RRIRTRPPRLPRPRPRPCGDPRP
shrunken log2 fold change: 0.176

RRIRTRPPRLPRPRPRPCGWPRP
shrunken log2 fold change: 0.0147

RRIRTRPPRLPRPRPRPCHMPRP
shrunken log2 fold change: -0.0872

RRIRTRPPRLPRPRPRPCHTPRP
shrunken log2 fold change: -0.166

RRIRTRPPRLPRPRPRPCKHPRP
shrunken log2 fold change: -0.0101

RRIRTRPPRLPRPRPRPCLGPRP
shrunken log2 fold change: -0.534

RRIRTRPPRLPRPRPRPCLHPRP
shrunken log2 fold change: -1.17

RRIRTRPPRLPRPRPRPCMRPRP
shrunken log2 fold change: -0.0225

RRIRTRPPRLPRPRPRPCNLPRP
shrunken log2 fold change: -0.00247

RRIRTRPPRLPRPRPRPCPGPRP
shrunken log2 fold change: -0.232

RRIRTRPPRLPRPRPRPCPIPRP
shrunken log2 fold change: -0.0712

RRIRTRPPRLPRPRPRPCPKPRP
shrunken log2 fold change: 0.0604

RRIRTRPPRLPRPRPRPCRNPRP
shrunken log2 fold change: -0.533

RRIRTRPPRLPRPRPRPCTKPRP
shrunken log2 fold change: 0.0197

RRIRTRPPRLPRPRPRPCTRPRP
shrunken log2 fold change: -0.287

RRIRTRPPRLPRPRPRPCVCPRP
shrunken log2 fold change: -0.206

RRIRTRPPRLPRPRPRPCVDPRP
shrunken log2 fold change: 0.0267

RRIRTRPPRLPRPRPRPCVSPRP
shrunken log2 fold change: -0.221

RRIRTRPPRLPRPRPRPCWWPRP
shrunken log2 fold change: 0.636

RRIRTRPPRLPRPRPRPCYLPRP
shrunken log2 fold change: -0.468

RRIRTRPPRLPRPRPRPDAWPRP
shrunken log2 fold change: 0.285

RRIRTRPPRLPRPRPRPDCIPRP
shrunken log2 fold change: -0.0428

RRIRTRPPRLPRPRPRPDCQPRP
shrunken log2 fold change: -0.107

RRIRTRPPRLPRPRPRPDCRPRP
shrunken log2 fold change: 0.106

RRIRTRPPRLPRPRPRPDEFPRP
shrunken log2 fold change: -0.00523

RRIRTRPPRLPRPRPRPDELPRP
shrunken log2 fold change: -0.0838

RRIRTRPPRLPRPRPRPDFCPRP
shrunken log2 fold change: -0.311

RRIRTRPPRLPRPRPRPDFHPRP
shrunken log2 fold change: -0.336

RRIRTRPPRLPRPRPRPDFNPRP
shrunken log2 fold change: -0.177

RRIRTRPPRLPRPRPRPDGEPRP
shrunken log2 fold change: 0.0799

RRIRTRPPRLPRPRPRPDICPRP
shrunken log2 fold change: 0.0407

RRIRTRPPRLPRPRPRPDLIPRP
shrunken log2 fold change: -0.0343

RRIRTRPPRLPRPRPRPDLKPRP
shrunken log2 fold change: 0.156

RRIRTRPPRLPRPRPRPDMDPRP
shrunken log2 fold change: 0.00854

RRIRTRPPRLPRPRPRPDNNPRP
shrunken log2 fold change: -0.48

RRIRTRPPRLPRPRPRPDPAPRP
shrunken log2 fold change: 0.0522

RRIRTRPPRLPRPRPRPDQEPRP
shrunken log2 fold change: 0.105

RRIRTRPPRLPRPRPRPDQKPRP
shrunken log2 fold change: -0.056

RRIRTRPPRLPRPRPRPDQQPRP
shrunken log2 fold change: -0.0173

RRIRTRPPRLPRPRPRPDRPPRP
shrunken log2 fold change: 0.188

RRIRTRPPRLPRPRPRPDTVPRP
shrunken log2 fold change: -0.0391

RRIRTRPPRLPRPRPRPDVKPRP
shrunken log2 fold change: -0.521

RRIRTRPPRLPRPRPRPDVQPRP
shrunken log2 fold change: 0.0493

RRIRTRPPRLPRPRPRPDWNPRP
shrunken log2 fold change: -0.39

RRIRTRPPRLPRPRPRPDWRPRP
shrunken log2 fold change: 0.0352

RRIRTRPPRLPRPRPRPEATPRP
shrunken log2 fold change: 1.05

RRIRTRPPRLPRPRPRPECYPRP
shrunken log2 fold change: -0.0535

RRIRTRPPRLPRPRPRPEDQPRP
shrunken log2 fold change: 0.112

RRIRTRPPRLPRPRPRPEEQPRP
shrunken log2 fold change: 0.0262

RRIRTRPPRLPRPRPRPEGGPRP
shrunken log2 fold change: 0.203

RRIRTRPPRLPRPRPRPEHEPRP
shrunken log2 fold change: -0.109

RRIRTRPPRLPRPRPRPEHNPRP
shrunken log2 fold change: -0.353

RRIRTRPPRLPRPRPRPEIYPRP
shrunken log2 fold change: -0.329

RRIRTRPPRLPRPRPRPEKLPRP
shrunken log2 fold change: -0.0188

RRIRTRPPRLPRPRPRPELEPRP
shrunken log2 fold change: 0.0188

RRIRTRPPRLPRPRPRPEMEPRP
shrunken log2 fold change: 0.0702

RRIRTRPPRLPRPRPRPENMPRP
shrunken log2 fold change: -0.468

RRIRTRPPRLPRPRPRPENVPRP
shrunken log2 fold change: -0.0181

RRIRTRPPRLPRPRPRPEPIPRP
shrunken log2 fold change: 0.226
